Laboratory results from patent US7901936B2, “Method for stimulating self-renewal of neural stem cells and enhancing neurogenesis” (Albany Medical College, priority 2004, dated 2011).

system: cortical stem cell clones; assay: Clonal growth of cortical stem cells with added soluble growth factors (without feeder cells); assay type: cell-based, mouse; settings: factor added at 10-50 ng/ml to serum-free medium with FGF2, no feeder cells
Experimental: Embryonic cerebral cortices and adult SVZ were dissected and dissociated as described (18-20). Single cells were plated into poly-l-lysine-coated 6-well plates (Costar) at clonal density (2000-4000 cells/well) and cultured in basal serum-free medium consisting of DMEM, B27, N2, NAC and 10 ng/ml FGF2 (19,20). To test the effects of soluble growth factors (PDGF, CNTF, TGFβ, IGF1, IL1, IL6, G-CSF, M-CSF, GM-CSF, LIF, BDNF, Steel factor, VEGF or EGF), each factor was added to serum-free medium with FGF2 at a range of 10-50 ng/ml, and clonal growth (cell number and generation of neurons and glia) was assessed (without co-cultured feeder cells). LIF and VEGF were also tested in combination, each added at 10 ng/ml into serum-free medium, with and without FGF2.

Molecule	duplication of the effect of endothelial co-culture on clonal growth
G-CSF: soluble growth factor (protein, UniProt P09919 31-207, looked up) Granulocyte …: TPLGPASSLPQSFLLKCLEQVRKIQGDGAALQEKLVSECATYKLCHPEELVLLGHSLGIPWAPLSSCPSQALQLAGCLSQLHSGLFLYQGLLQALEGISPELGPTLDTLQLDVADFATTIWQQMEELGMAPALQPTQGAMPAFASAFQRRAGGVLVASHLQSFLEVSYRVLRHLAQP	none duplicated the result we see from endothelial co-cultures
BDNF: soluble growth factor (protein, UniProt P23560 19-247, looked up) Neurotrophic factor BDNF …: APMKEANIRGQGGLAYPGVRTHGTLESVNGPKAGSRGLTSLADTFEHVIEELLDEDQKVRPNEENNKDADLYTSRVMLSSQVPLEPPLLFLLEEYKNYLDAANMSMRVRRHSDPARRGELSVCDSISEWVTAADKKTAVDMSGGTVTVLEKVPVSKGQLKQYFYETKCNPMGYTKEGCRGIDKRHWNSQCRTTQSYVRALTMDSKKRIGWRFIRIDTSCVCTLTIKRGR	none duplicated the result we see from endothelial co-cultures
M-CSF: soluble growth factor (protein, UniProt P09603 33-554, looked up) Macrophage colony-stimulating …: EEVSEYCSHMIGSGHLQSLQRLIDSQMETSCQITFEFVDQEQLKDPVCYLKKAFLLVQDIMEDTMRFRDNTPNAIAIVQLQELSLRLKSCFTKDYEEHDKACVRTFYETPLQLLEKVKNVFNETKNLLDKDWNIFSKNCNNSFAECSSQDVVTKPDCNCLYPKAIPSSDPASVSPHQPLAPSMAPVAGLTWEDSEGTEGSSLLPGEQPLHTVDPGSAKQRPPRSTCQSFEPPETPVVKDSTIGGSPQPRPSVGAFNPGMEDILDSAMGTNWVPEEASGEASEIPVPQGTELSPSRPGGGSMQTEPARPSNFLSASSPLPASAKGQQPADVTGTALPRVGPVRPTGQDWNHTPQKTDHPSALLRDPPEPGSPRISSLRPQGLSNPSTLSAQPQLSRSHSSGSVLPLGELEGRRSTRDRRSPAEPEGGPASEGAARPLPRFNSVPLTDTGHERQSEGSFSPQLQESVFHLLVPSVILVLLAVGGLLFYRWRRRSHQEPQRADSPLEQPEGSPLTQDDRQVELPV	none duplicated the result we see from endothelial co-cultures
CNTF: soluble growth factor (protein, UniProt P26441 1-200, looked up) Ciliary neurotrophic factor: MAFTEHSPLTPHRRDLCSRSIWLARKIRSDLTALTESYVKHQGLNKNINLDSADGMPVASTDQWSELTEAERLQENLQAYRTFHVLLARLLEDQQVHFTPTEGDFHQAIHTLLLQVAAFAYQIEELMILLEYKIPRNEADGMPINVGDGGLFEKKLWGLKVLQELSQWTVRSIHDLRFISSHQTGIPARGSHYIANNKKM	none duplicated the result we see from endothelial co-cultures
